Biological target: sugar chain-deficient cynomolgus CD27 (C-terminal His tag) expressed on Lec8 cells (cynomolgus)
Assay: flow cytometry (FCM) on cynomolgus CD27/Lec8 cells (Example 11(5)) [A]

EC50 (read off the curve): 0.2 µg/mL
B1: anti-sugar chain-deficient CD27 chimeric antibody chimeric KM4030 (antibody, human IgG1, V domains shown)
VH: EVQLVESGGGLVQPGRSLKLSCVASGFTFNNYWMTWIRQAPGKGLEWIASITNSGGSTYYPDSVKGRFTISRDNAKGTLYLQMNSLRSEDTATYYCTRDVNTYYGYNALFDYWGQGVMVTVSS
VL: DIQMTQSPSVLSASVGDRVTLNCKASQNINEYLNWYQQKLGEAPKLLIYNTNNLQTGIPSRFSGSGSGTDFTLTISSLQPEDFAAYFCFQHNSWPYTFGAGTKLELK
